From patent US20260167721A1 (ABLEXIS, published 2026)
Where a chain is given by its changes, count along the chain named.

B1: Gemtuzumab (antibody, V domains shown)
VH: EVQLVQSGAEVKKPGSSVKVSCKASGYTITDSNIHWVRQAPGQSLEWIGYIYPYNGGTDYNQKFKNRATLTVDNPTNTAYMELSSLRSEDTAFYYCVNGNPWLAYWGQGTLVTVSS
VL: DIQLTQSPSTLSASVGDRVTITCRASESLDNYGIRFLTWFQQKPGKAPKLLMYAASNQGSGVPSRFSGSGSGTEFTLTISSLQPDDFATYYCQQTKEVPWSFGQGTKVEVKR
B2: CD3 × CD33-BspAb115 (bispecific antibody)
chain 1: NFMLTQPHSVSESPGKTVTISCTRTSGSIASNYVQWYQQRPGSSPTTVIYEDNQRPSGVPDRFSGSIDSSSNSASLTISGLKTEDEAAYYCQSYDRSNRVFGCGTKLTVLGGGGSGGGGSGGGGSGGGGSQVQLQESGPGLVKPSETLSLTCTVSGGSISSYYWSWIRQPAGKCLEWIGRIYTSGSTKYNPSLKSRVTMSVDTSKNQFSLKLISVTAADTAVYFCARERIRDLYFDYWGQGTLVTVSSDKTHTCPPCPAPEFEGGPSVFLFPPKPKDTLMISRTPEVTCVVVDVSHEDPEVKFNWYVDGVEVHNAKTKPREEQYNSTYRVVSVLTVLHQDWLNGKEYKCKVSNKALPASIEKTISKAKGQPREPQVYTLPPCREEMTKNQVSLWCLVKGFYPSDIAVEWESNGQPENNYKTTPPVLDSDGSFFLYSKLTVDKSRWQQGNVFSCSVMHEALHNHYTQKSLSLSPGK
chain 2: EVQLVQSGAEVKKPGSSVKVSCKASGYTITDSNIHWVRQAPGQSLEWIGYIYPYNGGTDYNQKFKNRATLTVDNPTNTAYMELSSLRSEDTAFYYCVNGNPWLAYWGQGTLVTVSSASTKGPSVFPLAPSSKSTSGGTAALGCLVKDYFPEPVTVSWNSGALTSGVHTFPAVLQSSGLYSLSSVVTVPSSSLGTQTYICNVNHKPSNTKVDKRVEPKSCDKTHTCPPCPAPEFEGGPSVFLFPPKPKDTLMISRTPEVTCVVVDVSHEDPEVKFNWYVDGVEVHNAKTKPREEQYNSTYRVVSVLTVLHQDWLNGKEYKCKVSNKALPASIEKTISKAKGQPREPQVCTLPPSREEMTKNQVSLSCAVKGFYPSDIAVEWESNGQPENNYKTTPPVLDSDGSFFLVSKLTVDKSRWQQGNVFSCSVMHEALHNRFTQKSLSLSPGK
chain 3: DIQLTQSPSTLSASVGDRVTITCRASESLDNYGIRFLTWFQQKPGKAPKLLMYAASNQGSGVPSRFSGSGSGTEFTLTISSLQPDDFATYYCQQTKEVPWSFGQGTKVEVKRTVAAPSVFIFPPSDEQLKSGTASVVCLLNNFYPREAKVQWKVDNALQSGNSQESVTEQDSKDSTYSLSSTLTLSKADYEKHKVYACEVTHQGLSSPVTKSFNRGEC
B3: Low affinity Control (Control Humanized anti-CD3 (low affinity) scFv-Fc knob/TM x gemtuzumab) (bispecific antibody)
chain: EVQLVESGGGLVQPGGSLRLSCAASGFTFSTYAMNWVRQAPGKGLEWVGRIRSKYNNYATYYADSVKGRFTISRDDSKNTLYLQMNSLRAEDTAVYYCVRHGNFGDSYVSWFDYWGQGTLVTVSSGKPGSGKPGSGKPGSGKPGSQAVVTQEPSLTVSPGGTVTLTCGSSTGAVTTSNYANWVQQKPGKSPRGLIGGTNKRAPGVPARFSGSLLGGKAALTISGAQPEDEADYYCALWYSNHWVFGGGTKLTVLGGGGSDKTHTCPPCPAPEFEGGPSVFLFPPKPKDTLMISRTPEVTCVVVDVSHEDPEVKFNWYVDGVEVHNAKTKPREEQYNSTYRVVSVLTVLHQDWLNGKEYKCKVSNKALPASIEKTISKAKGQPREPQVYTLPPCREEMTKNQVSLWCLVKGFYPSDIAVEWESNGQPENNYKTTPPVLDSDGSFFLYSKLTVDKSRWQQGNVFSCSVMHEALHNHYTQKSLSLSPGK
heavy: B2 chain 2
light: B2 chain 3
B4: High affinity Control (Control Humanized anti-CD3 (high affinity) scFv-Fc knob/TM x gemtuzumab) (bispecific antibody)
chain: B3 chain with D113A
heavy: B2 chain 2
light: B2 chain 3
B5: CD3 × CD33-BspAb125 (bispecific antibody)
chain 1: not shown
chain 2: B2 chain 2
chain 3: B2 chain 3

What was measured:
[1] = target: T1, CD3 on human donor PBMC / Pan T effector cells (human, UniProt P07766 23-207; P09693 23-182; P04234 22-171; P20963 22-164); assay: cell-based or functional assay
[2] = target: T1, CD3 on human donor PBMC / Pan T …; assay: cell-based or functional assay; remark: listed apart in the source

T1 sequence (P07766 23-207, chain 1 of 4): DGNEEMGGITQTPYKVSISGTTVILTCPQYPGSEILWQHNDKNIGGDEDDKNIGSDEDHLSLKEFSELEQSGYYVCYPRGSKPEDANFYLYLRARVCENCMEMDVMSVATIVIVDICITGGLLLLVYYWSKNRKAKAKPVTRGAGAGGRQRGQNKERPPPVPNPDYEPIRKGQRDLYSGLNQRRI
T1 sequence (P09693 23-182, chain 2 of 4): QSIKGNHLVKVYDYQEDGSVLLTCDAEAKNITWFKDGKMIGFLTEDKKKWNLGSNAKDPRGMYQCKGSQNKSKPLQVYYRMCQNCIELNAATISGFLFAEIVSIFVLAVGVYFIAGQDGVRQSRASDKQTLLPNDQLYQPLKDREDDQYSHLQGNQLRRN
T1 sequence (P04234 22-171, chain 3 of 4): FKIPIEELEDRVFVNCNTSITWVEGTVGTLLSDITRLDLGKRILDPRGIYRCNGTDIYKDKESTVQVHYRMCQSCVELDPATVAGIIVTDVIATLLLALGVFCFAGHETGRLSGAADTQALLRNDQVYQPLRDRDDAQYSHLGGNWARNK
T1 sequence (P20963 22-164, chain 4 of 4): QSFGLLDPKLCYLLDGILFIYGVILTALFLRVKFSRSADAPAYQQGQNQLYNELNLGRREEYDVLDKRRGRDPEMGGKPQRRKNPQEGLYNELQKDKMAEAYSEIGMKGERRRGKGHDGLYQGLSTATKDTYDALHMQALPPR

Row | Binder | Cytokine Release Assay (TNFα) Donor 0 gMFI max [1] | Cytokine Release Assay (TNFα) Donor 1 gMFI max [1] | Cytokine Release Assay (TNFα) Donor 2 gMFI max [1] | Cytokine Release Assay (TNFα) Donor 3 gMFI max [1] | Cytokine Release Assay (IL2) Donor 0 EC50 [2] | Cytokine Release Assay (IL2) Donor 0 gMFI max [2] | Cytokine Release Assay (IL2) Donor 1 gMFI max [2] | Cytokine Release Assay (IL2) Donor 2 gMFI max [2] | Cytokine Release Assay (IL2) Donor 3 gMFI max [2] | Cytokine Release Assay (TNFα) Donor 0 EC50 [1] | Cytokine Release Assay (TNFα) Donor 1 EC50 [1] | Cytokine Release Assay (TNFα) Donor 2 EC50 [1] | Cytokine Release Assay (TNFα) Donor 3 EC50 [1] | Cytokine Release Assay (IL2) Donor 1 EC50 [2] | Cytokine Release Assay (IL2) Donor 2 EC50 [2] | Cytokine Release Assay (IL2) Donor 3 EC50 [2]
1 | B1 | 5310 gMFI | 4430 gMFI | 3680 gMFI | 3960 gMFI | 5.36 nM | 12500 gMFI | 12900 gMFI | 10700 gMFI | 12200 gMFI | – | – | – | – | – | – | –
2 | B2 | 91600 gMFI | 13000 gMFI | 24100 gMFI | 48600 gMFI | 0.206 nM | 242000 gMFI | 99300 gMFI | 45200 gMFI | 300000 gMFI | 0.0814 nM | 0.0553 nM | 0.0452 nM | 0.046 nM | 0.0755 nM | 0.0806 nM | 0.0479 nM
3 | B3 | 222000 gMFI | 82800 gMFI | 135000 gMFI | 122000 gMFI | 2.29 nM | 24300 gMFI | 18500 gMFI | 15700 gMFI | 21200 gMFI | 0.549 nM | – | 24.6 nM | 40.7 nM | 10.8 nM | – | 2.92 nM
4 | B4 | 231000 gMFI | 113000 gMFI | 125000 gMFI | 129000 gMFI | 0.456 nM | 377000 gMFI | 179000 gMFI | 121000 gMFI | 347000 gMFI | 0.459 nM | 13.1 nM | 5.98 nM | 0.212 nM | 1.64 nM | 16.7 nM | 0.172 nM
5 | B5 | 39600 gMFI | 5100 gMFI | 12000 gMFI | 17800 gMFI | 0.105 nM | 52800 gMFI | 22300 gMFI | 25100 gMFI | 65800 gMFI | 0.475 nM | – | 0.054 nM | 0.0446 nM | 0.102 nM | 0.115 nM | –
